Measured values published in US20210079109A1 (Regeneron, published 2021).

Key:
human CD63 [1] = molecular target: T1, human CD63 (human, UniProt P08962 2-238); assay: ECL, LNCAP cells
T1 construct: stably transfected in NIH3T3/hCD63; The cell line is named under assay; also called hCD63
T1 sequence: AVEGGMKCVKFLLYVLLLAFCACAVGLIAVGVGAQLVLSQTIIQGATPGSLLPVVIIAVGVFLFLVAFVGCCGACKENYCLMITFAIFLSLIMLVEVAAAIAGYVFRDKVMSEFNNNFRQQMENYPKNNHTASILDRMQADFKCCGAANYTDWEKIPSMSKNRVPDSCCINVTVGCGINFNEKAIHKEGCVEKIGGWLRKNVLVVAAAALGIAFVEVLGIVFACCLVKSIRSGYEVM
In short: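 Detached cells (~2.0×10⁴/well: NIH3T3/hCD63, LNCAP, U87MG, or parental NIH3T3 as negative control) were plated on carbon-electrode plates and blocked with 2% BSA. Anti-CD63 or isotype antibodies (1.7 pM–100 nM, in duplicate) were bound 1 h at RT, then washed. Signal read as electrochemiluminescence.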

human CD63 [2] = molecular target: T1, human CD63; assay: cell-based or functional assay
human CD63 [3] = molecular target: T1, human CD63; assay: cell-based or functional assay; remark: listed apart in the source
human CD63 [4] = molecular target: T1, human CD63; assay: imaging of stained T47D cells, 10 ug/mL antibody
Description: To stain, quadruplicate plates of cells were incubated with 10 μg/mL of anti-CD63 antibodies that was diluted in 2% FBS in PBS, without Calcium and Magnesium (Irving, Cat #9240) (staining buffer) for 30 minutes at 4° C. […] Two plates were immediately fixed and stained with 4% paraformaldehyde (PFA; ThermoFisher, Cat #28908)+5 uM DRAQ5 (ThermoFisher, Cat #62251) in PBS for 20 minutes (non-internalization plates). The remaining two plates were incubated with growth media at 37° C. for 2 hours followed by fixation and staining for 20 minutes using a solution of 4% PFA+5 μM DRAQ5 diluted in PBS (internalization plates). After fixation, all plates were washed once with PBS. One non-internalization plate and one internalization plate were incubated with an anti-Alexa Fluor 488 antibody (Regeneron) at 50 μg/mL in PBS overnight at 4° C. to quench surface Alexa Fluor 488 fluorescence. The remaining plates were incubated with PBS only. Confocal images were acquired on the Opera Phenix (Perkin Elmer) at 40× magnification. Harmony analysis software (Perkin Elmer) was utilized to identify DRAQ5-labeled cells and the total Alexa-Fluor 488 relative fluorescent units (RFU) per cell was determined. The total binding at 4° C. (RFU values of 4° C. unquenched wells), total binding at 37° C. (RFU values of 37° C. unquenched wells), the total internalized RFU, and the % Internalization were determined for each antibody as shown in Table 1. For all calculations, background fluorescence from 2nd Ab only control wells were subtracted from every well. Total internalized RFU was calculated as follows: Total RFU of 37° C. unquenched samples−Surface RFU at 37° C. Surface RFU is defined as unquenched RFU at 37° C.−quenched RFU at 37° C.)/QE. QE (quenching efficiency) is defined as: 1−(Total RFU of 4° C. quenched sample/Total RFU of 4° C. unquenched sample). The % Internalization was determined from the following formula: (Total internalized RFU at 37° C./Total RFU at 37° C.)*100.

EC50 (human CD63 [1]) [pM] | binding ratio at 3.7 nM vs NIH3T3 (human CD63 [1]) [fold] | % Internalization, T47D cells (human CD63 [2]) [%] | Total Internalized RFU, T47D cells (human CD63 [2]) [RFU] | Total RFU at 4C (human CD63 [4]) [RFU] | Total RFU at 37C (2 h) (human CD63 [4]) [RFU] | Binder | T47D (nM) IC50, indirect cytotoxicity with Fab anti-mFc-MMAF (human CD63 [3]) [nM]
1400 | 20 | 60.9 | 1.79e+06 | 2.36e+06 | 2.94e+06 | H2M12450N (antibody, V domains shown, also called H2aM12450N; mAb12450) VH: QVQLQESGPKVVKPSETLSLTCTVSGGSISSYYWNWIRQSPGKGLEWIGYTKRGYTDYNPSLRSRVTISEDTSKNQFSLRISSVTAADTAVYYCAQMGWGSHAFDMWGQGTMVAVSS VL: EIVLTQSPGTLSLSPGERATLSCRASQSVNSRYLAWYQQKPGQAPRLLIYGASSRATGIPDRCSGSGSGTDFTLTISRLEPEDFAVYYCQQYGSSPWTFGQGTKVEIK | 0.24
350 | 18 | 73.7 | 1.71e+06 | 1.9e+06 | 2.32e+06 | H1M12451N (antibody, V domains shown) VH: QVQLQESGPGLMKPSETLSLTCTVSGGSFSSYYWNWIRQSPGKGLEWIGYIRYSGDTNYKPSLKSRFTISIDTSKNLFSLRLKSVTAADTAVYYCARMGLGSDAFDIWGQGTMVTVSS VL: EIVLTQSPGTLSLSPGERATLSCRASQSVNNNYLAWYQQKPGQAPRLLIYGVFNRATNIPDRFSGSGSGTDFTLTISRLEPEDFAVYYCQQYGSSPWTFGQGTKVEIK | –
1700 | 7 | 73.2 | 1.24e+06 | 1.5e+06 | 1.69e+06 | H2M12395N (antibody, V domains shown, also called H2aM12395N) VH: QVQLQESGPRLVKPSETLSLTCIVSGGSISNFYWNWIRQSPGKGLEWIGYFFYTGTIDYNPSLKSRVTISLDTSKNQFSLNLRLLTAADAAVYYCARMGLGANAFDIWGHGTMVTVSS VL: EIVLTQSPGTLSLSPGERATLSCRASQHVSSNYLAWYQQKPGQAPRLLIYGGSSRATGIPDRFSGSGSGTDFTLTISRLEPADFAVFYCQQYGNSPWTFGQGTKVEMK | –
